Assay [1] has as its target T1, hGal3 peptide 2 (human).
T1 peptide: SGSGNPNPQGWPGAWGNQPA
Kind of assay: peptide ELISA, 20-mer library (Epitope Mapping).

Assay [2] has as its target T2, hGal3 peptide 7 (human).
T2 peptide: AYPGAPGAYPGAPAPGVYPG
Kind of assay: peptide ELISA, 20-mer library (Epitope Mapping).

The target of assay [3] is T3, Human Galectin-3 protein (Acro Biosystems, GA3-H5129) (human, UniProt P17931 2-250).
T3 construct: Bought protein; also called hGal3; Gal3; not shown: linker-spaced 6-histidine tag
Kind of assay: ELISA, hGal3 coated, antibody 3 ug/mL, competitor hTIM3.

Assay [4] has as its target T3, Human Galectin-3 protein (Acro …). In words: SPR Biacore T200, antibody captured, Galectin-3 analyte.
Assay [5] has as its target T4, hGal3 peptide 1 (human).
T4 construct: also called peptide 1 of Gal3
T4 peptide: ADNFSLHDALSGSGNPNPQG
In words: peptide ELISA, 20-mer library (Epitope Mapping).

The target of another assay is T5, hGal3 peptide 8 (human).
T5 peptide: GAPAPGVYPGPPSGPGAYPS
Kind of assay: peptide ELISA, 20-mer library (Epitope Mapping).

The target of assay [6] is T3, Human Galectin-3 protein (Acro …). Kind of assay: ELISA, hGal3 coated, competitor hTIM3 (FIG. 24).
Assay [7] deals with T6, mouse Gal3 on mouse cells (B16F10 tumor cells, RAW264.7 macrophages) (mouse, UniProt P16110 2-264).
T6 construct: whole, on cells; also called mGal3; Gal3 on RAW cells
T6 sequence (P16110 2-264, one chain of several): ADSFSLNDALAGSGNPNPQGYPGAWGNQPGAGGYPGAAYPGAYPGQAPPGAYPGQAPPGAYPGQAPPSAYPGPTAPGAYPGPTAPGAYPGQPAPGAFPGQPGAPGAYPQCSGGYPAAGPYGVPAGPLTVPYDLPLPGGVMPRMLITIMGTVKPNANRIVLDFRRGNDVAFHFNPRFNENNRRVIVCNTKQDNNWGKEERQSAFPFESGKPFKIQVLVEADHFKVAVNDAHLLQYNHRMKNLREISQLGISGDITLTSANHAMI
In words: flow cytometry, RAW cells, IMT001 10 ug/ml.

In assay [8] the target is T4, hGal3 peptide 1. Kind of assay: dot blot, 20 ug peptide per dot, anti-mIgG HRP.
Assay [9] addresses T1, hGal3 peptide 2. Kind of assay: dot blot, 20 ug peptide per dot, anti-mIgG HRP.
The target in another assay is T7, hGal3 peptide 4 (human).
T7 peptide: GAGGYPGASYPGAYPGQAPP
In words: dot blot, 20 ug peptide per dot, anti-mIgG HRP.

For assay [10], the target named is T2, hGal3 peptide 7. In words: dot blot, 20 ug peptide per dot, anti-mIgG HRP.
Assay [11] addresses T8, mouse Gal3 protein (BioLegend) (mouse, UniProt P16110 2-264, limits assumed).
T8 construct: also called mGal3
In words: ELISA, mGal3 coated, mouse TIM-3 Fc.

In assay [12] the target is T9, Flag-tagged human Gal3 protein on A20 cells (A20 Gal3 cells) (human, UniProt P17931 2-250).
T9 construct: also called A20 cells overexpressing human Gal3; not shown: Flag tag
In words: flow cytometry, A20 Gal3 cells, anti-hFc APC.

Results on 9 molecules are retold here after patent publication US20260234269A1 (TRUEBINDING, published 2026).

T8 sequence (P16110 2-264 limits assumed): as the sequence (P16110 2-264, one chain of several) above

B1: 7D8.2D8 (antibody, V domains shown)
VH: EVQLVESGGGLVKPGGSLKLSCAASGFTFSSYAMSWVRQTPEKRLEWVATISDGGIYTYYPDNVKGRFTISRDNAKNNLFLQMSHLKSEDTAMYYCVRDGGYWGQGTTLTVSS
VL: DVLMTQTPLSLPVSLGDQASISCRSSQSIVHSNGNTYLEWYLQKPGQSPKLLIYKVSNRFSGVPDRFSGSGSGTDFTLKISRVEAEDLGVYYCFQGSHVPLTFGAGTKLELK
notes: murine antibody
Consider B1, for which the binding result in the assay with hGal3 peptide 2 [1] and in the assay with hGal3 peptide 7 [2] was “binds” each time. In assay [3], the “GAL3-TIM3 Blocking @ 3 ug/mL” value worked out at 12%. The same molecule registered a dissociation constant Kd in assay [4] of 2.49 nM.

B2: 15F10.2D6 (antibody, V domains shown)
VH: EVQLVESGGGLVKPGGSLKLSCAASGFAFSSYAMSWVRQTPEKRLEWVATISDGGVYTYYTDHVKGRFTISRDNAEDNLYLQMSHLKSEDTAMYYCVRDGGYWGQGTTLTVSS
VL: DVLMTQTPLSLPVSLGDQASISCRSSQSIVHNNGNTYLEWYLQKPGQSPKLLIYKVSNRFSGVPDRFSGSGSGTDFTLKISRVEAEDLGVYYCFQGSHVPLTFGGGTKLELK
notes: murine antibody
As for B2, the binding result with hGal3 peptide 2 [1] and with hGal3 peptide 7 [2] was “binds” each time. Also, the “GAL3-TIM3 Blocking @ 3 ug/mL” value in assay [3] was found to be 19%. Also, binding in assay [4] was characterised by a dissociation constant (Kd) of 2.06 nM.

B3: 20D11.2C6 (antibody, V domains shown)
VH: EVQLQQSGPELVKPGASVKISCKASGYTFTDFYINWVKQSHGKSLEWIGDINPKNGGINYNPKFKIKATLTVDKSSSTSYMDLRGLTSEDSAVYYCTSGYGFPYWGQGTLVTVSA
VL: DIQMNQSPSSLSASLGDTITITCRASQNIYIWLSWYQQKPGNIPKLLIYKASNLHTGVPSRFSGSGSGTDFTLTISTLQPEDIATYFCLQGQSYPLTFGAGTKLEMK
notes: murine antibody
On to B3, for which the binding result with hGal3 peptide 1 [5], with hGal3 peptide 7 [2] and with hGal3 peptide 8 was “binds” in each case. Further, the “GAL3-TIM3 Blocking @ 3 ug/mL” value in assay [3] was 40%. Further, the Kd in [4] turned out to be 27.8 nM.

B4: 15G7.2A7 (antibody, V domains shown)
VH: EVQLQQSGPELVKPGASVKISCKASGYTFTDYYMNWVKQSHGKSLEWIGDINPNNGGTNYNQKFKGKATLTVDKSSSTAYMELRSLTSEDSAVYYCTSGYGFPYWGQGTLVTVSA
VL: DIQMNQSPSSLSASLGDTISITCRASQNINIWLSWYQQKPGNIPQLLIYKASNLHTGVPSRFSGSGSGTDFTLTISSLQPEDIATYYCLQGQSYPLTFGAGTKLVMK
notes: murine antibody
Take B4: the binding result with hGal3 peptide 1 [5], with hGal3 peptide 7 [2] and in the assay with hGal3 peptide 8 was “binds” in each case. Besides, in assay [3], the “GAL3-TIM3 Blocking @ 3 ug/mL” value came to 48%. The Kd in [4] was determined as 11.3 nM.

B5: 24D12.2H9 (antibody, V domains shown)
VH: QVQLKQSGPGLVQPSQSLSITCTVSGFSLTSYGVHWVRQAPGKGLEWLGVIWSGGSTDYNAAFMSRLSISKDNSKSQVFFKMNSLQADDTAIYYCAKSPDGYDVAWFGYWGQGTLVTVSA
VL: DIVMTQSHKFMSTSVGDRVSITCKASQDVRTAVAWYQQKPGQSPKLLIYWASTRHTGVPDRFTGSGSGTDFTLTLSNVQSEDLADYFCQQYSSYPWTFGGGTKLEIK
notes: murine antibody
On to B5, for which the “reduction of TIM3-GAL3 binding” value in assay [6] is no more than 25%. In addition, the “GAL3-TIM3 Blocking @ 3 ug/mL” value in assay [3] worked out at 0%. Moreover, the Kd in [4] amounted to 4.13 nM.

B6: mIMT001 (IMT001) (antibody, V domains shown)
VH: QIQLVQSGPELKKPGETVKISCKASGYTFTNYGMNWVKQAPGKGLKWMGWINTNTGEPTYVEEFKGRFAFSLETSASTAYLQINNLKNEDTATYFCAPYDNFFAYWGQGTLVTVSA
VL: DIVITQDELSNPVTSGESVSISCRSSKSLLYKDGKTYLNWFLQRPGQSPQLLIYLMSTHASGVSDRFSGSGSGTDFTLEISRVKAEDVGVYYCQQLVDYPLTFGAGTKLELK
notes: treated here as one molecule; also called mAb IMT001; Gal3 antibody clone IMT001
For the molecule B6, the “MFI, fold over isotype control antibody” value in [7] was greater than 10 fold. For the same molecule, the binding result with hGal3 peptide 1 [8], with hGal3 peptide 2 [9], with hGal3 peptide 4 and with hGal3 peptide 7 [10] was “no binding (tested: 1 ug/ml)” in each case. For the same molecule, the “GAL3-TIM3 Blocking @ 3 ug/mL” value in assay [3] was 80%. This molecule also displayed a Kd in assay [4] of 1.67 nM.

B7: mouse TIM-3 Fc protein (R&D systems) (Fc fusion, UniProt Q8VIM0 20-191, looked up)
chain: RSLENAYVFEVGKNAYLPCSYTLSTPGALVPMCWGKGFCPWSQCTNELLRTDERNVTYQKSSRYQLKGDLNKGDVSLIIKNVTLDDHGTYCCRIQFPGLMNDKKLELKLDIKAAKVTPAQTAHGDSTTASPRTLTTERNGSETQTLVTLHNNNGTKISTWADEIKDSGETIR
notes: also called mTIM-3 Fc; mTIM-3-Fc; not shown: Fc, detected with anti-human Fc / anti-human IgG
On to B7, for which the binding result in assay [11] and in assay [12] was “binds” each time.

B8: 12G5.D7 (antibody, V domains shown)
VH: QVQLKQSGAELVRPGASVKLSCKASGYTFTDYYINWVKQRPGQGLEWIARIYPGTGNTDYNEKFKGRATLTAEKSSSTAYMQLSSLTSEDSAVYFCARFAYYYGSGGYFDYWGHGTTLTVSS
VL: DILMTQSPSSMSVSLGDTVSITCHASQGINSNMGWLQQKPGKSFKGLIYHATNLEDGVPSRFSGSGSGADYSLTISSLESEDFADYYCVQYAQFPPTFGSGTKLEIK
notes: murine antibody
Consider B8, for which, in [6], the “reduction of TIM3-GAL3 binding” value was no more than 25%. Besides, the “GAL3-TIM3 Blocking @ 3 ug/mL” value in [3] came to 12%. The same molecule had a dissociation constant Kd in [4] of 1.9 nM.

B9: 13G4.2F8 (antibody, V domains shown)
VH: QVQLQQPGAELVKPGASVKLSCKASGYTFTSYWMHWVKQRPGQGLEWIGMIHPNSGSTDYNEKFKNKATLNVDKSSSTAYIQLSSLTSEDSAVYYCTRWGIYYYARDYWGQGTTLTVSS
VL: DIVMTQSQKFMSTSVGERVSITCKASQNVGTNVAWYQQKAGQSLELLIYGASNRHTGVPDRFTGSGSGTDFTLTITNVQSEDMTNYFCEQYSNFPLTFGAGTKLELK
notes: murine antibody
Consider B9, for which, in [6], the “reduction of TIM3-GAL3 binding” value is no more than 25%. In [3], the “GAL3-TIM3 Blocking @ 3 ug/mL” value is 0%. The molecule further registered a Kd in [4] of 2.53 nM.
